Values quoted from earlier work in patent publication US20240158457A1, “INTERLEUKIN-18 RECEPTOR BINDING POLYPEPTIDES AND USES THEREOF” (Medikine, Inc., priority 2022, published 2024).

Biological target: T1, IL-18 (Homo sapiens, UniProt Q14116)
T1 sequence (Q14116 37-193): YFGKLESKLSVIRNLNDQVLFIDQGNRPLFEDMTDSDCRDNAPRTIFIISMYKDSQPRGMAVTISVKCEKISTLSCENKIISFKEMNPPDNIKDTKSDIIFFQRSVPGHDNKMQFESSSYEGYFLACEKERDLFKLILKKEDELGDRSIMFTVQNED
Details: background; read-out: affinity for IL-18

Kd: ~0.4 nM
B1: IL-18BP: IL-18 binding protein, decoy receptor; IL-18BP Fc fusion (Acro #ILP-H5253) (protein)
chain: TPVSQTTTAATASVRSTKDPCPSQPPVFPAAKQCPALEVTWPEVEVPLNGTLSLSCVACSRFPNFSILYWLGNGSFIEHLPGRLWEGSTSRERGSTGTQLCKALVLEQLTPALHSTNFSCVLVDPEQVVQRHVVLAQLWAGLRATLPPTQEALPSSHSSPQQQG
modifications: left off: a dimerising Fc or GST
